Laboratory results published in the supplement of paper PMC9170038.

Test system: MS2 coat protein
Experiment: apparent KD of MS2 coat protein; higher = weaker reporter binding
Settings: Eterna round: R107
How it was run: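 Designed RNA switches were transcribed on-chip from Illumina sequencing clusters. They were then titrated with SNAP-549-labelled MS2 coat protein (twofold steps, 0.7 or 1.5 nM to 3 µM; 0.8–1.5 h to 10–20 min per step) in 100 mM Tris-HCl pH 7.5, 80 mM KCl, 4 mM MgCl2, without or with constant ligand. Apparent KD is the per-design median of normalised cluster binding-curve fits.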

[1] = input ligand: theophylline 20 uM
[2] = input ligand: tryptophan 2.4 mM
[3] = input ligand: theophylline 2 mM

Sequence | apparent KD of MS2 coat protein (input ligand: arginine 13.2 mM) [nM] | apparent KD of MS2 coat protein [1] [nM] | apparent KD of MS2 coat protein [2] [nM] | apparent KD of MS2 coat protein [3] [nM] | apparent KD of MS2 coat protein (input ligand: none) [nM]
AUCAGUAGAACUGAUACCAGUCAAAGGCUUUGACCUCAUAACAUGAGGAUCACCCAUGUUGACCCUUGGCAGCAGUAGGCAAGGG [Theo B Ex t4] | 22.5 | 28.9 | 25.4 |  | 
UGUAUUGGAAACAGUACUAGUGAUCCGGUCCGAGGACCGGUACGGCCGCCACUCGAAAUUAAUAAACAUGAGGAUCACCCAUGUA [Ex Tryptophan A 11] | 15.7 | 19.7 |  | 20.2 | 
ACACACAUGAGGAUCACCCAUGUAAUAGAUACCAGUGACGCGGUGCACCCUUGGCAGCUGCUGCUGAGUGAUGGUUCCCUCGGAA [Exclusion Theophylline A GF7] | 16.8 | 25.9 | 19.2 |  | 
GGGACACCGAGAAGGAGCGCAUCCAAACCACACAUGAGGAUCACCCAUGUAUAAAUAUGCAUGCAGGUAGGUCGCUCGGCGUCUC [Orordionbi] | 76.5 | 112 | 111 | 134 | 120
AGGUGCUGAUCGGCCGCCACUGAGAGGACGUGAACUUUAGCUGGUUACAUGAGGAUCACCCAUGUCAGGACCGGGAUUAGUUUGC [Quleorla] | 11.3 | 17.4 |  | 10.7 | 
GCUACAUGAGGAUCACCCAUGUGUACUGAAGGAGCGGCGGAAACGCCAGGUAGGUCGCAGUAUGUGGCUCUGGGCACGAGAAAGC [SSAA NP+V+V2 #2] | 36.6 | 28.3 | 34.3 | 72.9 | 25.3
UCGGGCAGAGCGGCCGCCACUGUUUGGCAUGCGGAUGACGGAACAUGAGGAUCACCCAUGUUGAUUAGGACCGGGCUUGCGGAGA [eefullin] | 11.6 | 42.3 | 37 | 25.1 | 18.9
CACGCGGUGUCGGCCGCCACUGACGCCCGUGGGUCUCCUGACAUGAGGAUCACCCAUGUACAGCGCAGGACCGGGACACCAACAA [Are] | 22 | 59 | 29.3 | 64.2 | 49.4
GCGAUGGAGCGAAGGAGCGGCUAAAUGUAUCACAUGAGGAUCACCCAUGUUCCAGGAUGUGGCCAGGUAGGUCGCGCUCCAUCGC [SSAB NP+V+V2 #16] | 233 | 212 | 288 | 322 | 229
AUAACAUGAGGAUCACCCAUGUAAGGUGAUACCAGACGAAGUAAAGUCCCUUGGCAGCACAAGUAAAGUUACGAAUAUUGAUAGA [JR_SSTheophyA_Sub004] | 62.2 | 416 | 634 |  | 
GGACUAACCUGAAGGAGCGACACGCAGAAACUGCAAAUUCCUCCACACGAGGAUCACCCGUGUCAGGUAGGUCGCAGGUUAGUCG [ArgBX 28] | 19 | 25.7 | 19.2 | 21.6 | 20.2
UGCUACAUGAGGAUCACCCAUGUGGGUGAUACCAGCAUUCGUUUAUGCCCUUGGCAGCGCAGCCGAACCAAUCAUUCGGCAGAAA [Artiusar] | 21 | 201 | 81 | 861 | 23
AUUCAUGGAAACAUGACAUAGGGAUCUAGCCGAGGACCGGUACGGCCGCCACUCGCUUGGAGGCACAUGAGGAUCACCCAUGUUA [SS Tryp A #6] | 42.3 | 140 |  | 140 | 
CCAUGCAGGUCGGCCGCCACUACACACAUGAGGAUCACCCAUGUAGUUACUGGGUGAAGUGGCAGUAGGACCGGGACCUGCAUAC [Brourdmod12] | 78.2 | 459 | 395 | 540 | 341
UACGUGGAUGCGGCCGCCACUGCUCUGAGCGAGUUGCUCUAUGGACAUGAGGAUCACCCAUGUCACAGGACCGGGCACGCUUUAA [theeternabot_sameState_MS2_Trp_B_50] | 9.14 | 11.9 |  | 10.6 | 
